# Results published in doi:10.1101/515924 (bioRxiv, 2019).
# B1: GST-Sli15 (1-401) (domain or fragment)
# chain: MDWAIKAARKKTQRKPGSTRSIIETLDDLNNLTTDAHSEINQRLYESSEWLRNNVYMNTLKYEDKKMEESLISPENTHNKMDVEFPKMKGEYELSNSQNDAAKDVTKTPRNGLHNDKSITPKSLRRKEVTEGMNRFSIHDTNKSPVEPLNSVKVDANESEKSSPWSPYKVEKVLRESSKTSESPINTKRFDNQTWAAKEEMENEPILQALKKAESVKVKPPPNSGIARSQRRSNMFVPLPNKDPLIIQHIPPTKSSGSIPKVRTVKESPIAFKKKSTINSPAIRAVENSDTAGSTKASSVFDRLSSIPTKSFENKISRGNVGHKYSSSSIDLTGSPMKKVSQKFKSINSTDTDMQEALRDIFSVKNKITKNNSPKGKNSRKSSIPRFDKTSLKLTTHKKLA
# Molecular target: His×6-Okp1 (budding yeast, UniProt P53298 1-406)
# Test: pull-down
# Chain of His×6-Okp1 (P53298 whole entry): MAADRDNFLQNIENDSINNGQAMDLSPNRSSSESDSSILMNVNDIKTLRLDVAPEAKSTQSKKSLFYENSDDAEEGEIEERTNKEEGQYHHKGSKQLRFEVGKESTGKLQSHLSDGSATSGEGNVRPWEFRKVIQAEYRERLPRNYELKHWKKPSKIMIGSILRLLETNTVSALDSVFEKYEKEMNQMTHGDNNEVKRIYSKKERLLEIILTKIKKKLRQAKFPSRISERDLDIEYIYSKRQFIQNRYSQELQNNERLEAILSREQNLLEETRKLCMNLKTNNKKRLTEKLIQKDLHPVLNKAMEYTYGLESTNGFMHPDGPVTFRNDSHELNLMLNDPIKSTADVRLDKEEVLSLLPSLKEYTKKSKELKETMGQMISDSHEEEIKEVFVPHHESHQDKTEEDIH
binder,measurement,value
B1,binding result,binds
